# Substitutions are numbered along the chain they refer to.
# B1: YU505-F03 (antibody, V domains shown)
# VH: EVQLLESGAEVKKPGASVKVSCKASGYTFTGYYMHWVRQAPGQGLEWMGQINPNSGGTNYAQKFQGRVTMTRDTSISTAYMELSRLRSDDTAVYYCARGEGFDYWGQGTLVTVSS
# VL: SYVLTQPPSASGTPGQRVTISCSGSSSNIGSNYVYWYQQLPGTAPKLLIYRNNQRPSGVPDRFSGSKSGTSASLAISGLRSEGEADYYCAAWDDSLSGVVFGGGTKVTVL
# B2: YU505-F05 (antibody, V domains shown)
# VH: EVQLLESGGGVVQPGRSLRLSCAASGFTFSSYGMHWVRQAPGKGLEWVAVMSYDGSKKYYADSVKGRFTISRDNSKNTLYLQMNSLRAEDTAVYYCVTQGMDVWGQGTLVTVSS
# VL: QSVLTQPPSVSVAPGKTARITCGGNNIGSKSVHWYQQKPGQAPVLVIYYISDRPSGIPERFSGSNSGNTATLTISRVEAGDEAAYYCHVWDSSSDHVVFGGGTKLTVL
# B3: YU505-D02 (antibody, V domains shown)
# VH: QVQLVQSGAEVKKPGSSVKVSCKASGGTFSSYAISWVRQAPGQGLEWMGGIIPIFGTANYAQKFQGRVTITADKSTSTAYMELSSLRSEDTAVYYCARETSSGWSFLDYWGQGTLVTVSS
# VL: B2 VL with Q1S, S2Y, I50D, A84D, H88Q, L105V
# B4: YU505-F05 (antibody, V domains shown)
# VH: B2 VH
# VL: B2 VL
# B5: YU505-B06 (antibody, V domains shown)
# VH: not shown
# VL: B2 VL with Q1S, S2Y, I50D, A84D, H88Q
# B6: hybrid antibody: VL YU536-D04 (SEQ ID No. 362) with VH STE90-C11 (SEQ ID No. 1305) (antibody, V domains shown)
# VH: QVQLVESGGGLVQPGGSLRLSCAASGLTVSSNYMSWVRQAPGKGLEWVSVIYSGGSTYYADSVKGRFTISRDDSKNTLYLQMNSLRAEDTAVYYCARDVADAFDIWGQGTMVTVSS
# VL: DIQLTQSPSSLSASVGDRVTITCRASQGISSYLAWYQQKPGKAPKLLIYAASTLQSGVPSRFSGSGSGTDFTLTISSLQPEDFATYYCQQLNSYPITFGQGTKLEIK
# B7: hybrid antibody: VL YU536-D04 (SEQ ID No. 362) with VH YU537-H11 (SEQ ID No. 404) (antibody, V domains shown)
# VH: EVQLLESGGGLIQPGGSLRLSCAASGLTVSSNYMSWVRQAPGKGLEWVSVIYSGGSTYYADSVKGRFTISRDNSKNALYLQMNSLRAEDTAVYYCARGESGSPYGMDVWGQGTLVTVSS
# VL: B6 VL
# B8: hybrid antibody: VL YU537-H11 (SEQ ID No. 402) with VH STE90-C11 (SEQ ID No. 1305) (antibody, V domains shown)
# VH: B6 VH
# VL: QSVLTQPPSVSAAPGQKVTISCSGSSSNIGNNYVSWYQQLPGTAPKLLIYDTNKRPSGIPDRFSGSKSGTSATLGITGLQTGDEADYYCATWDSSLSVGVFGGGTKLTVL
# B9: YU505-E01 (antibody, V domains shown)
# VH: QVQLVQSGAEVKKPGSSVKVSCKASGGTFSSYSIVWVRQAPGQGLEWMGGIIPIFGTTNYAQKFQGRVTITADESTSTAFMELSNLKSEDTAVYFCARSLGATRDYWGQGTLVTVSS
# VL: SYVLTQPPSVSEAPRQRVTISCSGSSSNIGNNAVNWYQQLPGKAPKLLIYYDDLLPSGVSDRFSGSKSGTSASLAISGLQSEDEADYYCAAWDDSLNGPVFGGGTKVTVL
# B10: YU505-E04 (antibody, V domains shown)
# VH: QVQLVQSGAEVKKPGSSVKVSCKASGGTFSSYAISWVRQAPGQGLEWMGGIIPIFGTANYAQKFQGRVTITADESTSTAYMELSSLRSEDTAVYYCARGRGYSYGHDYWGQGTLVTVSS
# VL: B9 VL with V3E, L40F, P99W, V107L
# B11: YU505-E01 (antibody, V domains shown)
# VH: B9 VH
# VL: B9 VL
# B12: YU505-A01 (antibody, V domains shown)
# VH: QVQLVQSGAEVKKPGASVKVSCKASGYTFTSYYMHWVRQAPGQGLEWMGIINPSGGSTSYAQKFQGRVTMTRDTSTSTVYMELSSLRSEDTAVYYCARDRHYYDSSGSSQATFLFDYWGQGTLVTVSS
# VL: QSVLTQPPSVSGAPGQRVTISCTGSSSNIGAGYDVHWYQQLPGTAPKLLIYGNSNRPSGVPDRFSGSKSGTSASLAITGLQAEDEADYYCQSYDSSLNVFGTGTKLTVL
# B13: YU505-A01 (antibody, V domains shown)
# VH: B12 VH
# VL: B12 VL
# B14: YU505-A05 (antibody, V domains shown)
# VH: QVQLVQSGAEVKKPGSSVKVSCKASGGTFSSYAISWVRQAPGQGLEWMGGIIPIFGTANYAQKFQGRVTITADESTSTAYMELSSLRSEDTAVYYCARSDSGYSGYGYFDYWGQGTLVTVSS
# VL: QSALTQPASVSGSPGQSISISCTGTSSDVGRYNYVSWYQQHPGKAPKLMIYDVTNRPSGVSSRFSGSKSGNAASLTISGLQAEDEAEYYCTSYTSSNTLVIFGGGTKVTVL
# B15: YU519-A09 (antibody, V domains shown)
# VH: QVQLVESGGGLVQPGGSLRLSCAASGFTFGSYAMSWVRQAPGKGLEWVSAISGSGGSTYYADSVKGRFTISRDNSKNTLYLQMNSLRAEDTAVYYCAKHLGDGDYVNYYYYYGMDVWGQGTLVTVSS
# VL: SYVLTQPPSVSVAPRQTARITCGGNNIGSKNVHWYQQKPGQAPVLVVYDDNVRPSGIPERFSGSNSGNTATLTISRVEAGDEADYYCQVWLNSSDDVLFGGGTKVTVL
# B16: YU505-A02 (antibody, V domains shown)
# VH: QVQLVESGAEVKKPGSSVKVSCKASGGTFSSYAISWVRQAPGQGLEWMGGIIPIFGTANYAQKFQGRVTITADESTSTAYMELSSLRSEDTAVYYCARQIWAYDSSGYPVPAEYFQHWGQGTLVTVSS
# VL: QSVLTQPPSVSGAPGQRVTISCTGSSSNIGAGYDVHWYQQLPGTAPKLLIYGNSNRPSGVPDRFSGSKSGTSASLAITGLQAEDEADYYCQSYDSSLSGVVFGGGTKLTVL
# B17: YU505-A02 (antibody, V domains shown)
# VH: B16 VH
# VL: B16 VL
# B18: YU505-E02 (antibody, V domains shown)
# VH: QVQLVQSGAEVKKPGSSVKVSCKASGGTFSSYTISWVRQAPGQGLEWMGRIIPILGIANYAQKFQGRVTITADKSTSTAYMELSSLRSEDTAVYYCARDMVSVGAAGPYYFDYWGQGTLVTVSS
# VL: B16 VL with G12E, G15R, G70V, V100S
# B19: hybrid antibody: VL STE90-C11 (SEQ ID No. 1309) with VH YU536-D04 (SEQ ID No. 364) (antibody, V domains shown)
# VH: QVQLVQSGGGLVQPGGSLRLSCAASGLTVSSNYMSWVRQAPGKGLEWVSVIYSGGSTYYADSVKGRFIISRDNSKNTLYLQMNSLRAEDTAVYYCARDLVVMGLDVWGKGTLVTVSS
# VL: DIVMTQSPSFLSASVGDRVTITCRASQGISSYLAWYQQKPGKAPKLLIYAASTLQSGVPSRFSGSGSGTEFTLTISSLQPEDFATYYCQQLNSYPPFTFGPGTKVDIK
# B20: hybrid antibody: VL STE90-C11 (SEQ ID No. 1309) with VH YU537-H11 (SEQ ID No. 404) (antibody, V domains shown)
# VH: B7 VH
# VL: B19 VL
# B21: hybrid antibody: VL YU537-H11 (SEQ ID No. 402) with VH YU536-D04 (SEQ ID No. 364) (antibody, V domains shown)
# VH: B19 VH
# VL: B8 VL
# Assays:
# [1] = biological target: T1, receptor binding domain (RBD) of the S1-subunit of SARS-CoV-2 glycoprotein S (SARS-CoV-2, UniProt P0DTC2 319-541); assay: ACE2:RBD competition assay, 5 µg/ml IgG
# [2] = biological target: SARS-CoV-2 glycoprotein S (SARS-CoV-2, UniProt P0DTC2 14-1273); assay: cell-based or functional assay
# [3] = biological target: T2, receptor binding domain (RBD) of the S1-subunit of SARS-CoV-2 glycoprotein S (SARS-CoV-2, UniProt P0DTC2 319-541); assay: ACE2:RBD competition, antibody at 0.5 µg/ml
# [4] = biological target: T2, receptor binding domain (RBD) of the …; assay: ACE2:RBD competition, antibody at 5 µg/ml
# [5] = biological target: T1, receptor binding domain (RBD) of the …; assay: RBD-binding quality as compared to STE90-C11, wt
binder,measurement,setting,value
B1,ACE2:RBD inhibition with 5 µg/ml IgG [%],[1],42.2%
B2,Confluence Score in VERO E6 cell assay,[2],> 95%
same,ACE2 bound to RBD at 0.5 µg/ml antibody,[3],< 60%
same,ACE2 bound to RBD at 5 µg/ml antibody,[4],< 30%
B3,ACE2:RBD inhibition with 5 µg/ml IgG [%],[1],49.4%
B4,ACE2:RBD inhibition with 5 µg/ml IgG [%],[1],26.7%
B5,ACE2:RBD inhibition with 5 µg/ml IgG [%],[1],58.5%
B6,binding result,[5],binds
B7,binding result,[5],binds
B8,binding result,[5],binds
B9,Confluence Score in VERO E6 cell assay,[2],> 98%
same,ACE2 bound to RBD at 0.5 µg/ml antibody,[3],< 50%
same,ACE2 bound to RBD at 5 µg/ml antibody,[4],< 25%
B10,ACE2:RBD inhibition with 5 µg/ml IgG [%],[1],28%
B11,ACE2:RBD inhibition with 5 µg/ml IgG [%],[1],24%
B12,Confluence Score in VERO E6 cell assay,[2],> 99%
same,ACE2 bound to RBD at 0.5 µg/ml antibody,[3],< 60%
same,ACE2 bound to RBD at 5 µg/ml antibody,[4],< 30%
B13,ACE2:RBD inhibition with 5 µg/ml IgG [%],[1],102%
B14,ACE2:RBD inhibition with 5 µg/ml IgG [%],[1],52.7%
B15,ACE2:RBD inhibition with 5 µg/ml IgG [%],[1],35.6%
B16,Confluence Score in VERO E6 cell assay,[2],> 99%
same,ACE2 bound to RBD at 0.5 µg/ml antibody,[3],< 60%
same,ACE2 bound to RBD at 5 µg/ml antibody,[4],< 30%
B17,ACE2:RBD inhibition with 5 µg/ml IgG [%],[1],43.8%
B18,ACE2:RBD inhibition with 5 µg/ml IgG [%],[1],58.8%
B19,binding result,[5],binds
B20,binding result,[5],binds
B21,binding result,[5],binds

# Reference: patent US20240059758A1 (CORAT THERAPEUTICS, published 2024)
